Experimental data taken from patent US20230029453A1.

Tests used:
Assay in all cases: UV peptide exchange; HLA class I ELISA
Conditions in all cases: remark: other sources report otherwise
HLA-A*03:01 (human) = biological target: HLA-A*03:01 (human)
HLA-B*08:01 (human) = biological target: HLA-B*08:01 (human)
HLA-B*07:02 (human) = biological target: HLA-B*07:02 (human)
HLA-A*24:02 (human) = biological target: HLA-A*24:02 (human)
HLA-A*01:01 (human) = biological target: HLA-A*01:01 (human)
HLA-A*02:01 (human) = biological target: HLA-A*02:01 (human)
HLA-B*27:05 (human) = biological target: HLA-B*27:05 (human)

B1: P17 9-mer … (MSMB-NOCA4 fusion) (peptide)
peptide: RAVRRMNTF
modifications: here or on the partner: biotinylated heavy chain
HLA-A*03:01 (human)
  exchange rate with Pos: 3.8%
HLA-B*08:01 (human)
  exchange rate with Pos: 9%
HLA-B*07:02 (human)
  exchange rate with Pos: 38.7%
HLA-A*24:02 (human)
  exchange rate with Pos: 0.1%
HLA-A*01:01 (human)
  exchange rate with Pos: 4.9%

B2: P76 9-mer … (AR-V3) (peptide)
peptide: YCMAAPMGL
modifications: here or on the partner: biotinylated heavy chain
HLA-A*03:01 (human)
  exchange rate with Pos: 6%
HLA-A*02:01 (human)
  exchange rate with Pos: 85.9%
HLA-B*07:02 (human)
  exchange rate with Pos: 91.5%
HLA-A*24:02 (human)
  exchange rate with Pos: -0.5%
HLA-A*01:01 (human)
  exchange rate with Pos: 0.1%

B3: P82 9-mer … (AR-V7) (peptide)
peptide: RVGNCKHLK
modifications: here or on the partner: biotinylated heavy chain
HLA-A*03:01 (human)
  exchange rate with Pos: 58.1%
HLA-B*08:01 (human)
  exchange rate with Pos: 1.4%
HLA-A*02:01 (human)
  exchange rate with Pos: 6.3%
HLA-B*07:02 (human)
  exchange rate with Pos: 12.9%
HLA-A*24:02 (human)
  exchange rate with Pos: -0.1%
HLA-A*01:01 (human)
  exchange rate with Pos: 1.5%

B4: P87 9-mer … (AR-Intron) (peptide)
peptide: FLFLLLPLS
modifications: here or on the partner: biotinylated heavy chain
HLA-A*03:01 (human)
  exchange rate with Pos: 2.4%
HLA-B*08:01 (human)
  exchange rate with Pos: 3.1%
HLA-A*02:01 (human)
  exchange rate with Pos: 64%
HLA-B*07:02 (human)
  exchange rate with Pos: 5%
HLA-A*24:02 (human)
  exchange rate with Pos: 0.2%
HLA-A*01:01 (human)
  exchange rate with Pos: 1.1%

B5: P97 9-mer … (FOXRED2-TXN2 fusion) (peptide)
peptide: LMAQRLLLR
modifications: here or on the partner: biotinylated heavy chain
HLA-A*03:01 (human)
  exchange rate with Pos: 39%
HLA-B*08:01 (human)
  exchange rate with Pos: 2.7%
HLA-A*02:01 (human)
  exchange rate with Pos: 4.6%
HLA-B*07:02 (human)
  exchange rate with Pos: 7%
HLA-A*24:02 (human)
  exchange rate with Pos: 0.1%
HLA-A*01:01 (human)
  exchange rate with Pos: 2.5%

B6: P98 9-mer … (TP53 R213D frameshift) (peptide)
peptide: IVWWCPMSR
modifications: here or on the partner: biotinylated heavy chain
HLA-A*03:01 (human)
  exchange rate with Pos: 51.1%
HLA-B*08:01 (human)
  exchange rate with Pos: 2.4%
HLA-A*02:01 (human)
  exchange rate with Pos: 7.9%
HLA-B*07:02 (human)
  exchange rate with Pos: 6.7%
HLA-A*24:02 (human)
  exchange rate with Pos: -0.1%
HLA-A*01:01 (human)
  exchange rate with Pos: 2.5%

B7: P19 9-mer … (TMEM222-LOC644061 fusion) (peptide)
peptide: IPVLTRWPL
modifications: here or on the partner: biotinylated heavy chain
HLA-A*03:01 (human)
  exchange rate with Pos: 4.1%
HLA-B*08:01 (human)
  exchange rate with Pos: 14.5%
HLA-A*02:01 (human)
  exchange rate with Pos: 8.2%
HLA-B*07:02 (human)
  exchange rate with Pos: 91.3%
HLA-A*24:02 (human)
  exchange rate with Pos: 0.1%
HLA-A*01:01 (human)
  exchange rate with Pos: 5.2%

B8: Exchange control peptide … (peptide)
peptide: NPKASLLSL
modifications: not checked
HLA-A*01:01 (human)
  Average %: 6.5%
  Exch I (%): 7.4%
  Exch II (%): 5.6%

B9: P22 9-mer … (SLC45A3-ELK4 fusion) (peptide)
peptide: QLIAMDSAI
modifications: here or on the partner: biotinylated heavy chain
HLA-A*03:01 (human)
  exchange rate with Pos: 4.8%
HLA-B*08:01 (human)
  Average %: 7.9%
  Exch I (%): 8%
  Exch II (%): 7.8%
  exchange rate with Pos: 3.9%
HLA-A*02:01 (human)
  Average %: 41.5%
  Exch I (%): 40%
  Exch II (%): 43.1%
  exchange rate with Pos: 46.9%
HLA-B*07:02 (human)
  Average %: 12%
  Exch I (%): 12.2%
  Exch II (%): 11.8%
  exchange rate with Pos: 8.3%
HLA-A*24:02 (human)
  Average %: 4.5%
  Exch I (%): 4.8%
  Exch II (%): 4.1%
  exchange rate with Pos: 0%
HLA-B*27:05 (human)
  Average %: 4.3%
  Exch I (%): 4.7%
  Exch II (%): 3.9%
HLA-A*01:01 (human)
  Average %: 5%
  Exch I (%): 5%
  Exch II (%): 4.9%
  exchange rate with Pos: 4.4%

B10: Exchange control peptide … (peptide)
peptide: LIYRRRLMK
modifications: not checked
HLA-B*07:02 (human)
  Average %: 13.7%
  Exch I (%): 13%
  Exch II (%): 14.3%

B11: P46 9-mer … (TP53 R213D frameshift) (peptide)
peptide: CPMSRLRLA
modifications: here or on the partner: biotinylated heavy chain
HLA-A*03:01 (human)
  exchange rate with Pos: 10.3%
HLA-B*08:01 (human)
  exchange rate with Pos: 14.5%
HLA-A*02:01 (human)
  exchange rate with Pos: 14.4%
HLA-B*07:02 (human)
  exchange rate with Pos: 64.8%
HLA-A*24:02 (human)
  exchange rate with Pos: -0.4%
HLA-A*01:01 (human)
  exchange rate with Pos: 2.4%

B12: P48 9-mer … (AR.p.H875Y) (peptide)
peptide: YQFTFDLLI
modifications: here or on the partner: biotinylated heavy chain
HLA-A*03:01 (human)
  exchange rate with Pos: 4.4%
HLA-A*02:01 (human)
  exchange rate with Pos: 99.3%
HLA-B*07:02 (human)
  exchange rate with Pos: 12.8%
HLA-A*24:02 (human)
  exchange rate with Pos: 0.1%
HLA-A*01:01 (human)
  exchange rate with Pos: 4.3%

B13: P56 9-mer … (SPOP F102C) (peptide)
peptide: RAKCKFSIL
modifications: here or on the partner: biotinylated heavy chain
HLA-A*03:01 (human)
  exchange rate with Pos: 6.8%
HLA-B*08:01 (human)
  exchange rate with Pos: 38%
HLA-A*02:01 (human)
  exchange rate with Pos: 8.4%
HLA-B*07:02 (human)
  exchange rate with Pos: 82.5%
HLA-A*24:02 (human)
  exchange rate with Pos: 0.5%
HLA-A*01:01 (human)
  exchange rate with Pos: 2.6%

B14: P58 9-mer … (AR Q903H) (peptide)
peptide: HVPKILSGK
modifications: here or on the partner: biotinylated heavy chain
HLA-A*03:01 (human)
  exchange rate with Pos: 32.5%
HLA-B*08:01 (human)
  exchange rate with Pos: 5.3%
HLA-A*02:01 (human)
  exchange rate with Pos: 11.8%
HLA-A*24:02 (human)
  exchange rate with Pos: 0.2%
HLA-A*01:01 (human)
  exchange rate with Pos: 2.5%

B15: P60 9-mer … (FOXA1.p.F266L) (peptide)
peptide: YLRRQKRLK
modifications: here or on the partner: biotinylated heavy chain
HLA-A*03:01 (human)
  exchange rate with Pos: 36.6%
HLA-B*08:01 (human)
  exchange rate with Pos: 10.2%
HLA-A*02:01 (human)
  exchange rate with Pos: 7.9%
HLA-B*07:02 (human)
  exchange rate with Pos: 6.1%
HLA-A*24:02 (human)
  exchange rate with Pos: 0.9%
HLA-A*01:01 (human)
  exchange rate with Pos: 3.1%

B16: P61 9-mer … (FOXA1.p.R261G) (peptide)
peptide: CYLGRQKRF
modifications: here or on the partner: biotinylated heavy chain
HLA-B*08:01 (human)
  exchange rate with Pos: 3.6%
HLA-A*02:01 (human)
  exchange rate with Pos: 5.8%
HLA-A*24:02 (human)
  exchange rate with Pos: 90.3%
HLA-A*01:01 (human)
  exchange rate with Pos: 1.7%

B17: P73 9-mer … (TP53 G266E) (peptide)
peptide: LLERNSFEV
modifications: here or on the partner: biotinylated heavy chain
HLA-A*03:01 (human)
  exchange rate with Pos: 3.5%
HLA-B*08:01 (human)
  exchange rate with Pos: 2.6%
HLA-A*02:01 (human)
  exchange rate with Pos: 89.2%
HLA-B*07:02 (human)
  exchange rate with Pos: 8.7%
HLA-A*24:02 (human)
  exchange rate with Pos: 0.5%
